Patent publication US20220135687A1

Assays:
[1] = biological target: cynomolgus PD-L1 Fc-fusion protein (cynomolgus) (UniProt G7PSE7); assay: SPR, cyno PD-L1-Fc immobilised, antibody analyte
[2] = biological target: cynomolgus PD-L1 overexpressing stable cell line (cynomolgus) (UniProt G7PSE7); assay: FACS, cynomolgus PD-L1 cell line
Chain of cynomolgus PD-L1 overexpressing stable cell line (cynomolgus) (G7PSE7 entry or part of it limits assumed): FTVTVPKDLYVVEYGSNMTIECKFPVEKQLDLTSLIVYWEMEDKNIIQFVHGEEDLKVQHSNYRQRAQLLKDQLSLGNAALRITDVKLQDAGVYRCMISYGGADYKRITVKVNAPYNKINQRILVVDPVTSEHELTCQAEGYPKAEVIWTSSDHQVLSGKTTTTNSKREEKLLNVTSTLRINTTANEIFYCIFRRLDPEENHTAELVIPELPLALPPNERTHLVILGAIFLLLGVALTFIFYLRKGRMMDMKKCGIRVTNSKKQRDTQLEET

Chain of Durvalumab (antibody) (VH): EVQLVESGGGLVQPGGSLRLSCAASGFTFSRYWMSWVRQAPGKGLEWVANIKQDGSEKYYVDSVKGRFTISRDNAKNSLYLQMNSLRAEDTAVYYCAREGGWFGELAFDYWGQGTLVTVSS
Chain of Durvalumab (antibody) (VL): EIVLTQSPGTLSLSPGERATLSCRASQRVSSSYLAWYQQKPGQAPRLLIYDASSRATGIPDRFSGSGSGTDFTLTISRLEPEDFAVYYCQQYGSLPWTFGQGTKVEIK
Chain of cynomolgus PD-L1 Fc-fusion protein (cynomolgus) (G7PSE7 entry or part of it limits assumed): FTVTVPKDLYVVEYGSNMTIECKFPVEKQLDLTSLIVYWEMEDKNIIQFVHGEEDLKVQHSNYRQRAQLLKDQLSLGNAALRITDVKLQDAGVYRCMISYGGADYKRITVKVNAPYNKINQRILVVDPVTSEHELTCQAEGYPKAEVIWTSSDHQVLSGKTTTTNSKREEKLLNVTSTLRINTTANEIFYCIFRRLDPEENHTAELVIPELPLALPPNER

Durvalumab (antibody)
Kd [1]: 1.1 nM | EC50 [2]: 3.07 nM | Top (best-fit value) [2]: 8220
